This passage reports stoichiometry N results from paper PMC5869396.

This assay has as its target recombinant Shiga toxin-2a B subunit (rStx2aB), C-terminal 6xHis tag (E. coli O157:H7 strain EDL933). Put plainly: SEC; rStx2aB on Superdex-75 16/60 in PBS, 1 mL/min. Background: In gel filtration, larger molecules generally elute earlier.

The term stoichiometry N denotes the number of molecules, sites or subunits per partner or assembly.

Turning to “recombinant Shiga toxin-2a B subunit (rStx2aB), C-terminal 6xHis tag (domain or fragment)”, the stoichiometry N is 5.
